Legend:
[1] = target: triple NPF motif peptide made from the DONSON sequence (human); assay: native holdup (nHU) titration with western blot; biotinylated peptide bait on streptavidin resin, bait-saturated and control (biotin) resin mixed at various proportions; total Jurkat extract as analyte; 4 °C, 2 h; endogenous POLE and EPS15 left in the supernatant quantified by western blot; apparent dissociation constants
[2] = target: His6-AviTag-MBP-TEV-POLE2, P56282; assay: nHU titration, dot blot; details: chain shown with the change
Sequence of His6-AviTag-MBP-TEV-POLE2, P56282 (P56282 whole entry): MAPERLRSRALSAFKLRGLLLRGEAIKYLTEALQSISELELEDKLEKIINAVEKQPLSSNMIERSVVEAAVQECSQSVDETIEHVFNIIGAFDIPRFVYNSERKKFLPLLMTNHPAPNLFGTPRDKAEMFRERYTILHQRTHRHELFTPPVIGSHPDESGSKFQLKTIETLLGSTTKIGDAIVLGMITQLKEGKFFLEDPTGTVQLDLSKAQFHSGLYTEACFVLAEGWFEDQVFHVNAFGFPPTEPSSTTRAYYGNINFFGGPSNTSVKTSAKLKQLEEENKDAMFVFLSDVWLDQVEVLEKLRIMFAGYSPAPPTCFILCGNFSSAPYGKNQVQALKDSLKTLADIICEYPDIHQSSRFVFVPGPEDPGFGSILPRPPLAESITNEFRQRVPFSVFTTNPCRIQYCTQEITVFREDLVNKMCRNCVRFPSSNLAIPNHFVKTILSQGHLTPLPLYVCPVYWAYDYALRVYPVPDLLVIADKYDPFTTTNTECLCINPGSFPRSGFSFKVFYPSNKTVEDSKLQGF

| Kd [1] | Kd [2] | Binder |
| --- | --- | --- |
| 0.8 µM |  | EPS15 (natural protein) MAAAAQLSLTQLSSGNPVYEKYYRQVDTGNTGRVLASDAAAFLKKSGLPDLILGKIWDLADTDGKGILNKQEFFVALRLVACAQNGLEVSLSSLNLAVPPPRFHDTSSPLLISGTSAAELPWAVKPEDKAKYDAIFDSLSPVNGFLSGDKVKPVLLNSKLPVDILGRVWELSDIDHDGMLDRDEFAVAMFLVYCALEKEPVPMSLPPALVPPSKRKTWVVSPAEKAKYDEIFLKTDKDMDGFVSGLEVREIFLKTGLPSTLLAHIWSLCDTKDCGKLSKDQFALAFHLISQKLIKGIDPPHVLTPEMIPPSDRASLQKNIIGSSPVADFSAIKELDTLNNEIVDLQREKNNVEQDLKEKEDTIKQRTSEVQDLQDEVQRENTNLQKLQAQKQQVQELLDELDEQKAQLEEQLKEVRKKCAEEAQLISSLKAELTSQESQISTYEEELAKAREELSRLQQETAELEESVESGKAQLEPLQQHLQDSQQEISSMQMKLMEMKDLENHNSQLNWCSSPHSILVNGATDYCSLSTSSSETANLNEHVEGQSNLESEPIHQESPARSSPELLPSGVTDENEVTTAVTEKVCSELDNNRHSKEEDPFNVDSSSLTGPVADTNLDFFQSDPFVGSDPFKDDPFGKIDPFGGDPFKGSDPFASDCFFRQSTDPFATSSTDPFSAANNSSITSVETLKHNDPFAPGGTVVAASDSATDPFASVFGNESFGGGFADFSTLSKVNNEDPFRSATSSSVSNVVITKNVFEETSVKSEDEPPALPPKIGTPTRPCPLPPGKRSINKLDSPDPFKLNDPFQPFPGNDSPKEKDPEIFCDPFTSATTTTNKEADPSNFANFSAYPSEEDMIEWAKRESEREEEQRLARLNQQEQEDLELAIALSKSEISEA |
|  | 23 µM | HA-ERCC6L, full length, intact NPF motif, Q2NKX8 NPF to KAF (protein) MEASRRFPEAEALSPEQAAHYLRYVKEAKEATKNGDLEEAFKLFNLAKDIFPNEKVLSRIQKIQEALEELAEQGDDEFTDVCNSGLLLYRELHNQLFEHQKEGIAFLYSLYRDGRKGGILADDMGLGKTVQIIAFLSGMFDASLVNHVLLIMPTNLINTWVKEFIKWTPGMRVKTFHGPSKDERTRNLNRIQQRNGVIITTYQMLINNWQQLSSFRGQEFVWDYVILDEAHKIKTSSTKSAICARAIPASNRLLLTGTPIQNNLQELWSLFDFACQGSLLGTLKTFKMEYENPITRAREKDATPGEKALGFKISENLMAIIKPYFLRRTKEDVQKKKSSNPEARLNEKNPDVDAICEMPSLSRKNDLIIWIRLVPLQEEIYRKFVSLDHIKELLMETRSPLAELGVLKKLCDHPRLLSARACCLLNLGTFSAQDGNEGEDSPDVDHIDQVTDDTLMEESGKMIFLMDLLKRLRDEGHQTLVFSQSRQILNIIERLLKNRHFKTLRIDGTVTHLLEREKRINLFQQNKDYSVFLLTTQVGGVGLTLTAATRVVIFDPSWNPATDAQAVDRVYRIGQKENVVVYRLITCGTVEEKIYRRQVFKDSLIRQTTGEKKNPFRYFSKQELRELFTIEDLQNSVTQLQLQSLHAAQRKSDIKLDEHIAYLQSLGIAGISDHDLMYTCDLSVKEELDVVEESHYIQQRVQKAQFLVEFESQNKEFLMEQQRTRNEGAWLREPVFPSSTKKKCPKLNKPQPQPSPLLSTHHTQEEDISSKMASVVIDDLPKEGEKQDLSSIKVNVTTLQDGKGTGSADSIATLPKGFGSVEELCTNSSLGMEKSFATKNEAVQKETLQEGPKQEALQEDPLESFNYVLSKSTKADIGPNLDQLKDDEILRHCNPWPIISITNESQNAESNVSIIEIADDLSASHSALQDAQASEAKLEEEPSASSPQYACDFNLFLEDSADNRQNFSSQSLEHVEKENSLCGSAPNSRAGFVHSKTCLSWEFSEKDDEPEEVVVKAKIRSKARRIVSDGEDEDDSFKDTSSIKAFNTSLFQFSSVKQFDASTPKNDISPPGRFFSSQIPSSVNKSMNSRRSLASRRSLINMVLDHVEDMEERLDDSSEAKGPEDYPEEGVEESSGEASKYTEEDPSGETLSSENKSSWLMTSKPSALAQETSLGAPEPLSGEQLVGSPQDKAAEATNDYETLVKRGKELKECGKIQEALNCLVKALDIKSADPEVMLLTLSLYKQLNNN |
|  | 1.1 µM | HA-TTF2, full length, intact NPF motifs, Q9UNY4 NPF to KAF (protein) MEEVRCPEHGTFCFLKTGVRDGPNKGKSFYVCRADTCSFVRATDIPVSHCLLHEDFVVELQGLLLPQDKKEYRLFFRCIRSKAEGKRWCGSIPWQDPDSKEHSVSNKSQHASETFHHSSNWLRKAFKVLDKNQEPALWKQLIKGEGEEKKADKKQREKGDQLFDQKKEQKPEMMEKDLSSGLVPKKKQSVVQEKKQEEGAEIQCEAETGGTHKRDFSEIKSQQCQGNELTRPSASSQEKSSGKSQDVQRESEPLREKVTQLLPQNVHSHNSISKPQKGGPLNKEYTNWEAKETKAKDGPSIQATQKSLPQGHFQERPETHSVPAPGGPAAQAAPAAPGLSLGEGREAATSSDDEEEDDVVFVSSKPGSPLLFDSTLDLETKENLQFPDRSVQRKVSPASGVSKKVEPSDPVARRVYLTTQLKQKKSTLASVNIQALPDKGQKLIKQIQELEEVLSGLTLSPEQGTNEKSNSQVPQQSHFTKTTTGPPHLVPPQPLPRRGTQPVGSLELKSACQVTAGGSSQCYRGHTNQDHVHAVWKITSEAIGQLHRSLESCPGETVVAEDPAGLKVPLLLHQKQALAWLLWRESQKPQGGILADDMGLGKTLTMIALILTQKNQEKKEEKEKSTALTWLSKDDSCDFTSHGTLIICPASLIHHWKNEVEKRVNSNKLRVYLYHGPNRDSRARVLSTYDIVITTYSLVAKEIPTNKQEAEIPGANLNVEGTSTPLLRIAWARIILDEAHNVKNPRVQTSIAVCKLQACARWAVTGTPIQNNLLDMYSLLKFLRCSPFDEFNLWRSQVDNGSKKGGERLSILTKSLLLRRTKDQLDSTGRPLVILPQRKFQLHHLKLSEDEETVYNVFFARSRSALQSYLKRHESRGNQSGRSPNNPFSRVALEFGSEEPRHSEAADSPRSSTVHILSQLLRLRQCCCHLSLLKSALDPMELKGEGLVLSLEEQLSALTLSELRDSEPSSTVSLNGTFFKMELFEGMRESTKISSLLAELEAIQRNSASQKSVIVSQWTNMLKVVALHLKKHGLTYATIDGSVNPKQRMDLVEAFNHSRGPQVMLISLLAGGVGLNLTGGNHLFLLDMHWNPSLEDQACDRIYRVGQQKDVVIHRFVCEGTVEEKILQLQEKKKDLAKQVLSGSGESVTKLTLADLRVLFGI |
|  | 32 µM | HA-WDHD1, full length, intact NPF motif, O75717 NPF to KAF (protein) MPATRKPMRYGHTEGHTEVCFDDSGSFIVTCGSDGDVRIWEDLDDDDPKFINVGEKAYSCALKSGKLVTAVSNNTIQVHTFPEGVPDGILTRFTTNANHVVFNGDGTKIAAGSSDFLVKIVDVMDSSQQKTFRGHDAPVLSLSFDPKDIFLASASCDGSVRVWQISDQTCAISWPLLQKCNDVINAKSICRLAWQPKSGKLLAIPVEKSVKLYRRESWSHQFDLSDNFISQTLNIVTWSPCGQYLAAGSINGLIIVWNVETKDCMERVKHEKGYAICGLAWHPTCGRISYTDAEGNLGLLENVCDPSGKTSSSKVSSRVEKDYNDLFDGDDMSNAGDFLNDNAVEIPSFSKGIINDDEDDEDLMMASGRPRQRSHILEDDENSVDISMLKTGSSLLKEEEEDGQEGSIHNLPLVTSQRPFYDGPMPTPRQKPFQSGSTPLHLTHRFMVWNSIGIIRCYNDEQDNAIDVEFHDTSIHHATHLSNTLNYTIADLSHEAILLACESTDELASKLHCLHFSSWDSSKEWIIDLPQNEDIEAICLGQGWAAAATSALLLRLFTIGGVQKEVFSLAGPVVSMAGHGEQLFIVYHRGTGFDGDQCLGVQLLELGKKKKQILHGDPLPLTRKSYLAWIGFSAEGTPCYVDSEGIVRMLNRGLGNTWTPICNTREHCKGKSDHYWVVGIHENPQQLRCIPCKGSRFPPTLPRPAVAILSFKLPYCQIATEKGQMEEQFWRSVIFHNHLDYLAKNGYEYEESTKNQATKEQQELLMKMLALSCKLEREFRCVELADLMTQNAVNLAIKYASRSRKLILAQKLSELAVEKAAELTATQVEEEEEEEDFRKKLNAGYSNTATEWSQPRFRNQVEEDAEDSGEADDEEKPEIHKPGQNSFSKSTNSSDVSAKSGAVTFSSQGRVKAFKVSASSKEPAMSMNSARSTNILDNMGKSSKKSTALSRTTNNEKSPIIKPLIPKPKPKQASAASYFQKRNSQTNKTEEVKEENLKNVLSETPAICPPQNTENQRPKTGFQMWLEENRSNILSDNPDFSDEADIIKEGMIRFRVLSTEERKVWANKAKGETASEGTEAKKRKRVVDESDETENQEEKAKENLNLSKKQKPLDFSTNQKLSAFAFKQE |

— publication PMC12808100, “The non-catalytic DNA polymerase ε subunit is an NPF motif recognition protein” (Nature Communications, 2025)
